Reference: patent US9958461B2, “Detection of protein to protein interactions” (THE GOVERNING COUNCIL OF THE UNIVERSITY OF TORONTO, priority 2013, dated 2018)

Experiments:
EGFR-L858R = molecular target: T1, EGFR-L858R (Homo sapiens, UniProt P00533, L858R); experiment: MaMTH EGFR-interactor screen, lentiviral preys against EGFR-L858R bait (interaction score); assay type: cell-based; settings: MaMTH interaction score of prey with EGFR-L858R bait
T1 construct: with the advantage of testing full-length integral membrane proteins; (GGGGS)2 linker-Cub (human ubiquitin aa 35-76)-GAL4(1-147)-mNFkB(364-550) (C); expressed in transfected cells
Procedure: (§1) After lentivirus harvest, target cells (stable 5×GAL4UAS-luciferase reporter-HEK293T cells) were infected at a multiplicity of infection (MOI) of around 0.3-0.4 to ensure single copy integration per cell. Cells were selected in puromycin for at least 48 h and transfected with either EGFR-wildtype or EGFR-L858R baits in triplicates. 24 h after transfection, cells were lysed and luciferase assays performed. On each set of interaction assays, various negative controls were included. To calculate a MaMTH-interaction scores, negative controls were averaged and the fold-change of luciferase activity compared to the averaged controls was calculated and defined as the interaction score.
(§2) Each set of experiments contains a defined set of negative controls in at least three replicates. Negative controls were chosen as such that there is a range of controls showing high-background luciferase activity (normally cytosolic proteins: Fabp5, Pex19) as well as medium-background luciferase activity (membrane-bound interactors: Pex7, GABBR2). Negative controls were averaged and the fold-change of luciferase activity was calculated. Using this method, we have a stringent cut-off and chose an interaction score >1 to be interacting proteins.
(§3) Our cut-off of 1 is based on fold-change difference in luciferase activity over averaged negative controls. Negative controls include cytosolic preys (which tend to promiscuously bind to many proteins), plasma membrane- and peroxisomal-prey proteins. In general, we chose stringent conditions by testing preys that tend to have high luciferase background with any bait tested, in order to generate high-confidence interaction data. […] Phosphorylated tyrosine residues on the receptor are typically docking sites for downstream cytoplasmic targets and recognized through SH2 or PTB domains^43.

EGFR-Wt [1] = molecular target: T2, EGFR-Wt (Homo sapiens, UniProt P00533); experiment: MaMTH EGFR-interactor screen, lentiviral preys against EGFR-wildtype bait (interaction score); assay type: cell-based; settings: MaMTH interaction score of prey with EGFR-Wt bait, mean
T2 construct: with the advantage of testing full-length integral membrane proteins; (GGGGS)2 linker-Cub (human ubiquitin aa 35-76)-GAL4(1-147)-mNFkB(364-550) (C); expressed in transfected cells
Procedure: as §1, §2, §3

EGFR-Wt [2] = experiment: as above; assay type: cell-based, human; settings: ratio of EGFR-Wt mean to EGFR-L858R mean interaction score
Procedure: as §1, §2, §3

Substance | EGFR-L858R mean (EGFR-L858R) | EGFR-Wt mean (EGFR-Wt [1]) | Wt/L858R (EGFR-Wt [2])
ABL1 | 0.50 | 1.89 | 3.76
STUB1 | 7.04 | 10.28 | 1.46
PIK3R2 | 3.25 | 1.17 | 0.36
BLK | 8.25 | 4.51 | 0.55
HSPA1A | 19.20 | 12.77 | 0.67
Gapdh | 3.79 | 3.44 | 0.91
ITSN2 | 0.60 | 2.09 | 3.50
APP | 2.18 | 0.93 | 0.43
NCK2 | 4.87 | 4.35 | 0.89
YWHAG | 1.42 | 1.32 | 0.93
TRAF2 | 3.47 | 7.28 | 2.10
YWHAB | 10.44 | 7.39 | 0.71
YWHAZ | 13.94 | 7.58 | 0.54
GAB2 | 1.27 | 0.97 | 0.76
RELA | 1.18 | 1.27 | 1.08
CD3E | 0.76 | 1.39 | 1.83
HCK | 3.96 | 3.94 | 1.00
HSPA8 | 39.20 | 25.00 | 0.64
EZR | 5.00 | 8.30 | 1.66
ASAP2 | 0.97 | 1.77 | 1.81
PIM1 | 1.51 | 1.91 | 1.27
MAPK9 | 2.83 | 1.48 | 0.52
MUC1 | 4.18 | 1.09 | 0.26
FGR | 4.99 | 2.62 | 0.52
HDAC6 | 14.90 | 24.86 | 1.67
SOCS3 | 9.83 | 1.59 | 0.16
ITGB2 | 0.83 | 2.62 | 3.16
FRK | 5.36 | 2.84 | 0.53

Substance | EGFR-L858R mean (EGFR-L858R) | EGFR-Wt mean (EGFR-Wt [1]) | Wt/L858R (EGFR-Wt [2])
Rgs4 | 1.39 | 0.58 | 0.41
FASLG | 1.15 | 0.85 | 0.74
MAP4K1 | 1.76 | 1.51 | 0.86
PTPN6 | 1.43 | 1.51 | 1.05
CD33 | 1.24 | 0.37 | 0.30
Hsp90aa1 | 97.06 | 74.20 | 0.76
S100A4 | 4.46 | 1.72 | 0.39
PTPN1 | 55.90 | 44.56 | 0.80
PRKCA | 7.70 | 11.13 | 1.45
STAT2 | 3.03 | 0.84 | 0.28
SH2B1 | 3.76 | 2.99 | 0.79
IKBKG | 6.55 | 8.28 | 1.26
NTRK2 | 0.97 | 1.57 | 1.61
Grb2 |  |  | 0.28
PIK3C2B | 4.30 | 1.23 | 0.29
DOK6 | 1.32 | 1.22 | 0.92
TGFA | 1.59 | 2.52 | 1.59
AKT1 | 3.11 | 4.12 | 1.32
TLR2 | 1.69 | 0.58 | 0.34
YES1 | 1.23 | 1.91 | 1.55
ARRB1 | 6.57 | 2.72 | 0.41
PIK3R3 | 2.40 | 1.55 | 0.64
NR3C1 | 2.59 | 3.21 | 1.24
HSP90AB1 | 14.81 | 27.58 | 1.86
SFN | 14.70 | 5.60 | 0.38
YWHAQ | 11.96 | 8.19 | 0.69
STAT3 | 4.20 | 7.35 | 1.75
